According to the nanobody polyreactivity screen of Harvey et al. (2022):

Experiment: yeast display, Sf9 membrane polyspecificity reagent, FACS + sequencing; frameworks hold sequencing errors
In short: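 Sorting gates, low and high (top ~1%), were placed on anti-HA fluorescence to track expression and on streptavidin fluorescence to track reagent binding. A clone's polyreactivity label is taken from the gate it came out of. The reagent was 10% biotinylated, detergent-solubilized Sf9 membrane, applied for 1 hour at 4 °C to galactose-induced yeast display cells.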

Sequence	polyreactivity (PSR sort gate)
QVQLLESGGGLVQAGGFLRLSCASSGSTFFIYAMGWYRPAPGKERELDAAISWSGGSTYYADSVKGRFTISPDKANNTVYLQMICLKPEYTAVYYCADESYYFDEYYWGQATQVTVSS	high polyreactivity
QVQLVESGGGLVQAGGSLRLSCAASGRIFYANDMGWYRQAPGKERELVAAITNTVSTTYADSVKGRFTISRDNAKNTVYLQMNSLKPEDTAVYYCNADDPYVPKADMGYWGQGTQVTVSS	low polyreactivity
QVQLVESGGGLVQAGGSLRLSCAASGRTFDLYAMGWYRQAPGKEREFVAAISWRGGRTYYADSVKGRFTISRDNAKNTVYLQMNSQKPEDTAVYYCAARTGATSRIRFDYWGQGTQVTVSS	low polyreactivity
QFQLVESGGGLVQAGGSLRLSCAASGGIFYTYAMGWYRQAPAKERAFVAAISRSGGRTRYADSVKGRFTISRDNAKNTVYLQMNSLKQEDTAVYYCAARVIGAGLLKYDKWGQGTQVTVSS	high polyreactivity
QVQLVESGGGLVQAGGSLRISCAASGSTFQLYSMGWSRQAPGKEREFVAAITYSGGGSTSYADSVKGRFTISRDNAKNTVYLQMNSLKPEDTAVFYCAARDFETDGYTLVAYNYWGQGSQVTVSS	low polyreactivity
QVQLVESGGGLVKAGGSLRLSCAASGSIFGGYAMGCYRQAPGKERELVAAISYRGASTYYADSVKWRFTISRDNAKNTVYLQMNSLKPEDTAVYYCAVAARTRARVLYGYDYWGQGTQVTVSS	low polyreactivity
QVQLQESGGGLVQAGGSLRLGCAASGNISDAGYMGWYRQAPGKEREFVAAIAAGSNTNYADSVKGRFTISRDNAKNTVNLQMNSLKPEDTAVFYCAVASYARVQYEYWGQGTQVTVNS	low polyreactivity
QVQLVESGGGLVQAGGSLRLSCAASGSIFASNTMGWSRQATGKERELVAGITKIGSSTYYADSVKGRFTISRDNAKNTVYLQMNSLKPEDTEVYYCNAYGPNIYSSRYDYWGQGTQVTVSS	low polyreactivity
QVQLVESGGGLVQAGGSHRLSCAASGSTFSYNTMGWYRQAPGKERELVAAIRSGGSTYYADSVKGRFTISRDNAKNTVYLQMNSLKPEDTAVYYCATDKFHRKVLHWYDYWGQGTQVTVSS	low polyreactivity
QVQLVESGGGLVQAGGSLRLSCAASGRIRNAMGWYRQAPGKERELVAGITWSGGRTYYADSVKGRFTISRDNAKYTVYLQMNSLKPEDTAVYYCAAATPYRYNYWGQGTQVTVSS	high polyreactivity
QVQLVESGGGLVQAGGSLRLSCAASGFTFRVNAMGWYRQAPGKERELVAAITYSGGSTYYADSVKGRFTISRDNAKNTVYLQMNSLKPEDTAVYYCNKARWNSWLYGYHYRGLRSYDYWGQGTQVSVSS	high polyreactivity
QVQLVESVGGLVQAGGSLRLSCAASGFNFPGYAMGWYRPAPGKERELVAAITGSGGRTYYADSVKGRFTISRDNAKNTVYLQMISLKPEDTAVYYCLARSYYNWYDYWGKGTQVTVSS	high polyreactivity
QDQLVESGGGLVQAGGSLRLSCAASGRTFWYYAMGWYRQATGKERELVAAISSRGGTTYYADSVKGRFTISRDNAKNTVYLQMNSVKPEDTAVYYCASERWDLWLLYDYWGQGTQVTVSS	high polyreactivity
QVQLVESGGGLVQAGGSLRLSCAASGSIFWRYSMGWYRQAPGKERELVAAINYSTTRTYYADSVKGRFTISRDNAKNTVYLQMNSLKPEDTAVYYCAADSRVDEGEYWGQGTQVTVSS	high polyreactivity
QVQLVESGGGLVQAGGSLRLSCAASGLTFYYYAMGWYRQSPGKEREFVAAISRSGGTTYYADSVKGRFTISRDNAKNTVYLQMNSLKPEDTAVYYCAKASRYWSLYYWGQGTQVTVSS	high polyreactivity
QVQLVESGGGLVQAGGSLRLSCAASGFTFRWYTMGWYRQAPGKERELVAAISWSGTSTYYADSVKGRFTISRDNAKNIVYLQMNSLKPEDTAVYYCAAADFYYTGADDYWGQGTQVTVSS	high polyreactivity
QVQLLESGGGLVQAGGSLRLSCAASGRIFVYNVMGWSRQAPGKERELVADINGSGGGTIFADSVKGRFTISRDNAKNNVYFQMNSLKPVDTAVYYCNADSYEYHVPYYDYRYDYWGHGTQVTVSS	low polyreactivity
QVQLVESGGGLVQAGGSLRLSCAASGYIFQDYAMGWYRQAPAKERELVARISAGGGRTYYADSVKGRFTISRENAMNTVYLQMNSLKPEDTAVYYCAAPLSYSWVYIVRYGYDYWGQGTQVTVSS	low polyreactivity
QVQLVESGGGLVQAGGSLRLSCAASGIIFSKYAMGWYRQAPGKERELVAAISWNGVSTYYADSVKGRFTISRDNAKNTVYLQMNSLKPEDTAVYYCAADTYRSRRISYYWGQGTQVTVSS	low polyreactivity
QVQLVESGGGLDQAGGSLRLSFAASGFIFRYYTMGWYRQAPGKERELVAVITRGGSTYYADSVKGRFTISRDNAKNTVYLQMNSLKPEDTAVYYCAADRPGTGYSDYDYWGQGTQVTVSS	high polyreactivity
QVQLEESGGGLVQAGGSLRLSCAASGYTFRPYAIGWYRQAAGKERVLVAAISRSGGRTYYADSVKGRFTISRDNAKNTVYLQMNSLIPEDTAVYYCAADRFSLSGFDSWGQGTQGTVSS	low polyreactivity
QVHLVESCGGLVQAGGSLRLSCAASGFTFYTYTMGWYRQAPGKERELVAVISRSGGSTYYADSVKGRFTISRDNAKNTVYLQMNSLKPEDTAVYYCNAGYWRFIDSYDYWGQGTQVTVSS	high polyreactivity

Sequence	polyreactivity (PSR sort gate)
QVQLVESGGGLVQAGGSLRLSCAASGSIFYPYAMGWYRQAPGKEREFVAVISKGGTNTYYADSVKGRFTISRDNAKNTVYLQMNSLKPEDTAVYYCAARVDTYRAKYYYWGQGTQVTVSS	high polyreactivity
QVQIVESGGGLVQAGGSLRLSCAASGGIFEINVLGWYRQAPGKERELVAAISSRGGSTYYADSVKGRFTISRDNAKNTVYLQMNSLKPEDTAVYYCARRYRPKYGYWGQGTQVTVSS	high polyreactivity
QVQLVDSGGGLVQAGGILRLSCAASGSIFSSYAMGWYRQAPGKERELVAAITSGGSTYYADSVKGRFTISRDNAKITVYLQMNSLKREDTAVYYCAAYLSYFGYDYWGQGTQVTVSS	low polyreactivity
QVQLVESGGGLVQAGGSLRLSCAASGSISPVYAMGWYRQAPGKERELVAAYADSVKGRFTISRDNAKNTVYLQMNSLIPEDTAVYYCNVVETSQELGWQAFDYWGQGTQVTVSS	low polyreactivity
QVQLVESGGGLVQAGGSLRLSCAASGSTFGGYVMGWYRQAPGKERELVAAISGNGASTTYADSVKGRFTISRDNAKNTFYLQMNSLIPEDTAVFYCAAMYRKAHSDYDYWGQGSQVTVSS	low polyreactivity
QVQLEESVGGLVQAGGSLRLSCAASGRIFTPYAMGWYRQAPGKERELVATISRGTSTSYADSVKGRFTISRDNAKNTVYLQMNSLKPEDTAVYYCAALGPRTTFRYTSYYYWGQGTQVTVSS	high polyreactivity
QVQLEESGGVLVQAGGSLRLSCAASGRIFVWYAMGWYRQAPGKERELVAAISSADSTNYADSVKGRFTISRDNAKNTVYLQMNSLKPEDTAVYYCNAEGWPGNVVYGYYYWGQGTQVTVSS	low polyreactivity
QVQLVESGGGLVQAGGSLRLSCAASGIIFARYAMGWYRQAPGKERELVAAITSGGGTSYADSVKGRFTISRDNAKNTVYLQMNSLKPEDTAVYYCNADGYLAERFVIRLDEYRDYDYWGQGTQVTVSS	low polyreactivity
QVQLVESGGGLVQAGGSLRLSCAASGSTSYNAMGWYRQAPGKERELVAAISDGGGSTYYADSVKGRFTISRDNAKNTVYLQMNSLKPEDTAVYYCAADTITGDGYWGQGTQVTVSA	low polyreactivity
QVQLVESGGGLVQAGGSLRLSCAASGSIFPYYAMGWYRQAPGKERELVATISNSGGSTYYADSVKGRFTISRDNAKNTVYLQMNSLKPEDTAVYYCAADRGSYPYTGDYWGQGTQVNVSS	low polyreactivity
QVQLVESGGGLVQAGGSLRLSCAASGLTFYRNAMGWYRQAPGKERELVAAITSRGGSTYYADSVKGRFTISRDNAKNTVYLQMNSLKPEDTAVYYCAAYSTLITGRDYGYWGQGTQVTVSS	high polyreactivity
QVQLVESGGGLVQAGGSLRLSCAASGITFPNYTMGWYRQAPWKERELLAAISYNGGGTYYADSVNGRFTISRYKAKNTVYVQKNSLKPEDTAVYYCAALGLYGDYLRYDYWGQGTQVSVSS	high polyreactivity
QVQLVESGGGLVQAGGSLRLSCAASGITFYYYAMGWYRQAPGKERELVASIDNSGGSTYYADSVKGRFTISRDNEKNTVYLQMHSLKPEDTAVYFCAAVSRYYFLGVAFLDDYWGQGTLVTVSS	high polyreactivity
QVQLVESGAGLVQAGGSLRLSCAPSGNIFSVYAMGWYRHAPGKARELVARITKTVGGTYYADSVKGRFTISRDNAKNTVYLQMNSLKPEDTAVYYCAARVWTGNGGSKGAYDYWGQGTQVTVSS	high polyreactivity
QVQLVESGGGLVQAGGSLRLSCAASGNTFVSNARGWYRQAPGKERELVAAIDSGGSTNYADSVKGRFTISRDNAKNTVYLQMNSLKPEDTAVYYCNRTSVYYYYWGQGTQVTVSS	low polyreactivity
QVQLVESGGGLVQAGGSLRLICAASGFIYFFYAMGWSRQAPGKEMEFVAVITQSGGSTYYADSVKGRFTISRDNAKNTVYLQMNSLKPEDTAVYYFNADTVRYYPFFSVRYYYWGQGTQVTVSS	low polyreactivity
QVQLEESGGRLVQAGGSLRLSCAASGYTFPLYAMGWYRQAPGKERELVADINIGGASTYYADSVKGRFTISRDNAKNTVYLQMNSLKPEDTAVYYCAAEDSWYWDAWFDYWGQGTQVTVSS	low polyreactivity
QVQLVESGGGLVQAGGSLRLSSAASGNIFDYYAMGCYRQAPGKERELVASISWSGRGTYYADSVKGRFTISRDNAKNTVYVQMTSLKAEDTAVYYCAADGSTVNAPRWSDPYDYWGQGSQVTVSS	low polyreactivity
QVQLVESGGGLVQAGGSLRLSCAASGSIFTYYAMGWYRQATRKERELLADIRWSVGSTYYADSVKGRFTISRDNAKNTVYLQMNSLKPEDTAVYYCNAVVYIYYLTSYKYGNDSWGQGTQVTVSS	low polyreactivity
QVQLVESGGGLVQAGGSLRLSCAASGSTFRYYAMGWYSQAPGKERELVASISSGGSTNYADSVKGRFTISRDNAKNTVYLQMNSLKPEDTAVYYCNADSWTVNRRYYYYRYEYWGQGTQVTVSS	low polyreactivity
QVQLVESGGGLVQAGGSLRLSCAASGSIFVWYVMGWYRQAPGKERELVAAITWSAARTYDADSVKGRFTISRDNAKNTVYLQMNSLKPADTAVYYCAADHVSYQPSSRIFDYWGQGTQVTVSS	low polyreactivity
